The results in this text go back to patent US20050026833A1, “PSP-94: use for treatment of hypercalcemia and bone metastasis” (priority 2001, published 2005).

Series [1] relates to Mat Ly Lu-PTHrP tumors. The series can be described thus: S.C. Mat Ly Lu-PTHrP tumor growth (volume, weight) in Copenhagen rats. The format is in vivo, male Copenhagen rats. As to the method: Control animals received PBS alone as vehicle control.
Starting from the day of tumor cell inoculation animals were infused S.C., below the tumor cell inoculation site, with different doses of PSP-94 (0.1-10.0 ug/kg/day) for up to 15 days.
In FIG. 2B male Copenhagen rats were inoculated s.c with 10^6 Mat Ly Lu-PTHrP cells. After 3 days of tumor cell inoculation, animals were injected with vehicle alone (Ctl) or different doses (0.1, 1, 10 ug/kg) of PSP-94 (nPSP) at the site of tumor cell injection. Tumor volume (expressed in cubic centimeter (cm^3)) was determined at timed intervals.
At the end of the study tumors from control (CTL), vehicle treated animals and PSP-94 treated animals were excised and weighed.

For series [2], the system named is Mat Ly Lu-PTHrP skeletal metastasis. Kind of series: I.C. inoculation skeletal metastasis model, hind limb paralysis. The format is in vivo, male Copenhagen rats. As for the experimental part: Animal Protocols. Inbred male Copenhagen rats weighing 200-250g were obtained from Harlan Sprague-Dawley (Indianapolis, Ind.). Before inoculation, Mat Ly Lu-PTHrP tumor cells growing in serum-containing medium were washed with Hanks buffer, trypsinized, and collected by centrifugation at 1500 rpm for 5 min. […] Animals were divided into control groups which received vehicle alone (PBS: phosphate buffered saline) and experimental groups which were infused I.P. with different doses (0.1-10.0 ug/kg/day) of PSP-94 starting at the time of tumor cell inoculation (day 0) until the day of skeletal metastasis development. The time after tumor cell inoculation which was required to develop hind limb paralysis (an index of spinal cord compression due to lumbar vertebrae metastasis) was determined and percentage of starting number of animals developing hind-limb paralysis was plotted.
Alternatively, cell pellets (10×10^3 cells) were resuspended in 100ul saline and injected using 1 ml syringes into the left ventricle of rats anaesthetised with ketamine/xylazine cocktail. […] The time after tumor cell inoculation which was required to develop hind limb paralysis (an index of spinal cord compression due to lumbar vertebrae metastasis) was determined and percentage of starting number of animals developing hind-limb paralysis was plotted. In other sets of experiments, following I.C. tumor cell inoculation, control animals receiving PBS and experimental animals receiving 100.0 ug/kg/day of PCK3145 were sacrificed before the development of hind-limb paralysis (day 10 post tumor cell inoculation) and their vertebral column spanning from L1-L5 was removed and subjected to bone histomorphometric and immunohistochemical analysis as described herein.
Thus, male Copenhagen rats were inoculated via I.C. route into the left ventricle with 10×10^3 Mat Ly Lu-PTHrP cells. Starting on the time of tumor cell inoculation (day 0) animals were infused with different doses of PSP-94 (0.1-10.0 ug/kg/day) until the day of development of hind-limb paralysis as described herein. Animals receiving vehicle alone as control (CTL) or PSP-94 were monitored daily for the development of hind-limb paralysis and % animals not paralyzed at different time points in each group was calculated.
Male Copenhagen rats were inoculated with Mat Ly L u-PTHrP cells (10×10^3) into the left ventricle via I.C. injections. Starting on the day of tumor cell inoculation (day 0), experimental animals received different doses of PCK3145 (1.0-100.0 ug/kg/day) via I.P. route. To evaluate the effect of PCK3145 on delaying the development of experimental skeletal metastasis, animals were evaluated daily by monitoring of the animals for the development of hind-limb paralysis. […]

Series [3] concerns Mat Ly Lu-PTHrP tumors. Kind of series: TUNEL assay and Hoechst counterstaining of primary tumor sections. The format is in vivo, male Copenhagen rats. The note with it: vs vehicle; for TUNEL staining of tumor sections: fifteen days. As to the method: For TUNEL assay, tissue sections were, for example, dewaxed (e.g., in xylene), (may also be rehydrated by heating at 60° C. followed by washing in xylene) and (further) rehydrated through a graded alcohol series (100%-70%). Tissues were incubated with proteinase K for 30 min at 37° C. fixed, blocked and permeabilized. Apoptotic cells were detected by TUNEL assay in situ cell death detection kit (Roche Molecular Biochemicals, Laval, QC) according to the manufacturer's instruction. Positive TUNEL staining was visualised by fluorescence microscopy. In other experiments following TUNEL assay, tissue sections were counterstained with Hoechst 33258 (Sigma-Aldrich, Canada). Hoechst staining was added to tissues at a final concentration of 24 ug/ml in PBS and incubated for 15 minutes at room temperature. Tissue sections were washed and visualized by fluorescence microscopy using a blue screen (Rabbani, S. A., et al., Int. J.Cancer, 87:276-282, 2000). All results of immunohistochemistry and TUNEL assay were evaluated and interpreted by two independent examiners.
The degree of DNA fragmentation was also analyzed in vivo using TUNEL assay which can serve as a marker for apoptosis. […] All animals were sacrificed at the end of the study and their primary tumors removed, paraffin embedded, sectioned and processed by TUNEL assay (upper panel of FIG. 14B) as described herein. Following TUNEL assay, they were counterstained with Hoescht reagent (lower panel of FIG. 14B).
In order to investigate an underlying molecular mechanism of action of PCK3145 in reducing tumor growth, Mat Ly Lu-PTHrP tumors were analyzed using TUNEL assay which can serve as a marker for apoptosis. […] All animals were sacrificed at the end of the study and their primary tumors removed, paraffin embedded, sectioned and processed by TUNEL assay (upper panel) and counterstained with Hoescht reagent (lower panel). Five animals were present in each group and three sections were analyzed for each animal.

Series [4] in a line: Animal weight and side-effect monitoring in tumor-bearing rats. The following applies: for cytotoxic effects: overall conclusion of the study.
Description: Also, alternatively, cell pellets (5×10^5 cells) were resuspended in 100 ul saline and injected using 1 ml syringes into the right flank of rats as described herein. From the time of tumor cell inoculation, experimental animals were treated with different doses (0.1, 1.0, 10.0, or 100.0 ug/kg/day) of PSP-94 or PCK3145 (SEQ ID NO.:5) via S.C. injections for 15 consecutive days. Control animals received PBS alone as vehicle control. All animals were numbered, kept separately and monitored daily for the development of tumors. […] All control and experimental animals were weighed every alternate day to determine any adverse effect of PSP-94 or PCK3145. Both control and experimental animals were sacrificed at day 16 post tumor cell inoculation and their tumors were removed and weighed.
During the study, both control and experimental animals were monitored for any noticeable side effects and cachexia resulting in weight loss. […] Starting on the time of tumor cell inoculation animals were infused with different doses of PSP-94 for fifteen consecutive days as described herein. All animals were weighed at timed intervals and comparison was made with that of tumor bearing animals receiving vehicle alone as control (CTL).
Male Copenhagen rats were inoculated with 1×10^6 Mat Ly Lu-PTHrP cells via S.C. route of injection into the right flank. Animals were infused daily via S.C. route, below the site of tumor cell inoculation, with different doses (1.0-100.0 ug/kg/day) of PCK3145 starting from the day of tumor cell inoculation and lasting for 15 days. […] Animals were also weighed to determine any side effects of administering PCK3145. […] In order to determine the effect of PCK3145 on tumor weight, control animals and experimental animals receiving PCK3145 were sacrificed at the end of the study (day 16) and their tumors excised and weighed.

“Also recorded” adds a separate entry of the source.

As for “E W Q T D N C E T C T C Y E T (EWQTDNCETCTCYET; PCK3145 (polypeptide 31-45))”, the tumor volume entry in series [1] (PCK3145 1.0-100.0 ug/kg/day S.C. for 15 days, vs vehicle) is “significant dose-dependent reduction”. Also, the tumor weight entry in series [1] (different doses of PCK3145, day 16 (data not shown), vs vehicle) is “dose-dependent decrease”. Further, the “number of animals developing hind limb paralysis” value in series [2] (100.0 ug/kg/day PCK3145 I.P. from day 0, vs vehicle) was “statistically significant delay”. In series [2] (1.0 and 10.0 ug/kg/day PCK3145 I.P. (data not shown)), the “time of developing hind limb paralysis” value was “no significant effect”. Also, the “Hoechst counterstaining of tumor sections” value in series [3] (Example 9, PCK3145 study) is “presence of apoptotic bodies”. In addition, the “TUNEL staining of tumor sections” value in series [3] (PCK3145 100.0 ug/kg/day) is listed as “significantly more TUNEL positive”. The animal weight result in series [4] (PCK3145 1.0-100.0 ug/kg/day S.C. for 15 days) is “No significant difference”. Also, the cytotoxic effects entry in series [4] is “without manifesting any noticeable cytotoxic effects”.

B1: PSP-94: prostate secretory protein of 94 amino acids; native human seminal plasma PSP-94 (protein)
chain: SCYFIPNEGVPGDSTRKCMDLKGNKHPINSEWQTDNCETCTCYETEISCCTLVSTPVGYDKDNCQRIFKKEDCKYIVVEKKDPKKTCSVSEWII
Take B1: the tumor volume entry in series [1] (10.0 ug/kg/day PSP-94 as compared to 1.0 ug/kg/day PSP-94) was “did not show a marked decrease”; in series [1] (PSP-94 0.1-10.0 ug/kg/day S.C. up to 15 days, vs vehicle), “marked dose-dependent reduction”. Moreover, the tumor weight entry in series [1] (PSP-94 0.1-10.0 ug/kg/day, tumors excised day 16, vs vehicle) is “significant dose-dependent decrease”. Moreover, the “number of animals developing hind limb paralysis (delay in skeletal metastasis)” value in series [2] (10.0 ug/kg/day PSP-94 from day 0, vs vehicle) is reported as “statistically significant delay; also recorded: modest (but measurable) delay”. For the same molecule, the “time of hind limb paralysis” value in series [2] (0.1 and 1.0 ug/kg/day PSP-94 (data not shown)) is given as “no significant effect”. Besides, the “Hoechst counterstaining of tumor sections” value is on record as “condensed chromatin” in series [3] (Example 9, PCK3145 study) and “presence of apoptotic bodies; also recorded: condensed chromatin” in series [3] (PSP-94 treated animals). In addition, the “TUNEL staining of tumor sections” value in series [3] (PSP-94 10.0 ug/kg/day) is “significantly more TUNEL positive”. The “side effects or weight loss of experimental animals” value in series [4] (different doses of PSP-94, S.C. tumor model) is “not associated with any noticeable side effects or weight loss”. For the same molecule, the animal weight result in series [4] (different doses of PSP-94 for fifteen consecutive days, vs vehicle) was “No significant change”. The cytotoxic effects entry in series [4] was “without manifesting any noticeable cytotoxic effects”.
